Measurements reported in patent US20240251767A1 (LEVERAGEN, published 2024).
Where two headings read alike, the source gives them in different places.

Tests used:
[1] = biological target: T1, Spike protein of the COVID-19 Spike-ACE2 Binding Assay Kit (Raybiotech) (SARS-CoV2, UniProt P0DTC2 319-541)
[2] = biological target: T1, Spike protein of the COVID-19 …; remark: listed apart in the source

Binder | IC50 [1] [nM] | IC50 [2] [nM]
MS329_5 Nb-human Fc fusion (Fc fusion, not shown: a dimerising Fc or GST, also called LVGN-S3205; LVGN-53205) VH: EVQLQQSGPELVKPGASVKMSCKASGYTFTDYYIKWEKQSHGKSLEWIGDINPKNGETFYNQQFKGKATLTVDKSSSTAYMQLNSLTSEDSAVYYCARKEYGDYGYAVDYWGQGTSVTVSS | 0.4 | 0.397
M2S521_378 Nb-human Fc fusion (Fc fusion, not shown: a dimerising Fc or GST, also called LVGN-S231378; LVGN-S521378) VH: EVQLQQSGPELVKPGASVKISCKASGYTFTDYYMKWVKQSHGKSLEWIGDINPKNGGTNYNQKFKDKATLTVDKSSSTAYMELRSLTSEDSAVYYCARLEDGYYGYAIDYWSQGTSVTVSS | 3.3 | –
